Data on one molecule can be found in patent US20060058230A1 (published 2006).

The target in experiment [1] is T1, recombinant hPTH1-receptor (human, UniProt Q03431 27-593).
T1 sequence (looked up): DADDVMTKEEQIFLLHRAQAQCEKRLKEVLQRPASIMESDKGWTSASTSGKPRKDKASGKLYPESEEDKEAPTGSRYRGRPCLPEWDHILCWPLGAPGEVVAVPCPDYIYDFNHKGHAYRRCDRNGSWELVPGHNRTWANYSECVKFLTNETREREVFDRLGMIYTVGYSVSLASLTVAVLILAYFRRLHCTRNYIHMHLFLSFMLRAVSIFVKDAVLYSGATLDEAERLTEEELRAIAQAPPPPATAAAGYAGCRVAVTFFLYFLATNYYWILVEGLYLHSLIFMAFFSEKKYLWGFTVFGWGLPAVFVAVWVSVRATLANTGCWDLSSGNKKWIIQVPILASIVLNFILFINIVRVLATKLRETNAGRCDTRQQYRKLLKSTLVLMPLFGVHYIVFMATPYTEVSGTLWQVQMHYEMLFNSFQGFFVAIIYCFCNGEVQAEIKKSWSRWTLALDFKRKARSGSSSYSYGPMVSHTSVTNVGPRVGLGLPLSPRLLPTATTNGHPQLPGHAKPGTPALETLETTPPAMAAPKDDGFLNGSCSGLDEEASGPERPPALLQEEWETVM
Description: cell-based or functional assay.

Experiment [2] has as its target T1, recombinant hPTH1-receptor. In words: competition with 125I-[Nle8,18,Nal23,Tyr34]bPTH(1-34)NH2 on HEK293/C21 cells with hPTH1-receptor. On the procedure:
Human embryonic kidney (HEK293) cells, stably transfected with recombinant hPTH1-receptor (HEK293/C21 cell line, ˜400,000 receptors/cell) (Pines, M., Adams, A. E., Stueckle, S., Bessalle, R., Rashti-Behar, V., Chorev, M., Rosenblatt, M., and Suva, L. J. Endocrinology 1994, 135, 1713-1716), were maintained in D-MEM medium supplemented with 10% fetal bovine serum and […] glutamine at 37° C. in a humidified atmosphere of 95% air/5% CO₂. The medium was changed every 3-4 days, and the cells were subcultured every week. Ligand stimulated adenylyl cyclase activity and radioreceptor competition binding assays were performed on confluent cultures, 1-3 days after a change of medium.
[Nle^{8,18},Nal²³,Tyr³⁴]bPTH(1-34)-NH₂ was radioiodinated and the crude material was purified as previously described (Roubini, E., Duong, L. T., Gibbons, S. W., Leu, C. T., Caulfield, M. P., Chorev, M., and Rosenblatt, M. Biochemistry 1992, 31, 4026-4033). Briefly, 67 μg of peptide in 50 μL phosphate buffer, pH 7.4, in a borosilicate tube, coated with 10 μg Iodogen® (Pierce Chemical), were treated at room temperature with 2 mCi [¹²⁵I]Na for 12 min, followed by dilution with 200 μL of 0.1% TFA in water.
Cells were plated in 24-well tissue culture dishes (Corning Glass Works, Corning, N.Y.) and grown to subconfluency. […] After incubation, cells were washed twice with PBS and lysed with 0.1 M NaOH. Radioactivity in the lysate was measured in a γ-counter (Analytic GammaTrac™ 1193).

Non-standard residues stand in square brackets, D forms with d. No end group written: not given here. 2Nal = N[C@@H](Cc1ccc2ccccc2c1)C(=O)O; Nle = CCCC[C@H](N)C(=O)O; βAla = NCCC(=O)O

B1: [Nle^8,β-Ala^18, Nal^23, Tyr^34]bPTH(1-34)NH2 (peptide)
peptide: AVSEIQF[Nle]HNLGKHLSS[βAla]ERVE[2Nal]LRKKLQDVHNY-NH2
modifications: N-terminus assumed
SMILES: CCCC[C@H](NC(=O)[C@H](Cc1ccccc1)NC(=O)[C@H](CCC(N)=O)NC(=O)[C@@H](NC(=O)[C@H](CCC(=O)O)NC(=O)[C@H](CO)NC(=O)[C@@H](NC(=O)[C@H](C)N)C(C)C)[C@@H](C)CC)C(=O)N[C@@H](Cc1c[nH]cn1)C(=O)N[C@@H](CC(N)=O)C(=O)N[C@@H](CC(C)C)C(=O)NCC(=O)N[C@@H](CCCCN)C(=O)N[C@@H](Cc1c[nH]cn1)C(=O)N[C@@H](CC(C)C)C(=O)N[C@@H](CO)C(=O)N[C@@H](CO)C(=O)NCCC(=O)N[C@@H](CCC(=O)O)C(=O)N[C@@H](CCCNC(=N)N)C(=O)N[C@H](C(=O)N[C@@H](CCC(=O)O)C(=O)N[C@@H](Cc1ccc2ccccc2c1)C(=O)N[C@@H](CC(C)C)C(=O)N[C@@H](CCCNC(=N)N)C(=O)N[C@@H](CCCCN)C(=O)N[C@@H](CCCCN)C(=O)N[C@@H](CC(C)C)C(=O)N[C@@H](CCC(N)=O)C(=O)N[C@@H](CC(=O)O)C(=O)N[C@H](C(=O)N[C@@H](Cc1c[nH]cn1)C(=O)N[C@@H](CC(N)=O)C(=O)N[C@@H](Cc1ccc(O)cc1)C(N)=O)C(C)C)C(C)C
notes: Synthetic analog of bovine PTH(1-34), carboxamide at the C-terminus
For B1, in experiment [1], the “EC50 (half maximal stimulation of adenylate cyclase)” value came out at 3.9 nM. Besides, the 50% inhibitory concentration (IC50) in experiment [2] amounted to 285 nM.
